Data published in patent publication US20190030126A1, “Inhibitors of the Interaction BCL-2 L10 / IP3 Receptors” (Universite Claude Bernard - Lyon 1, priority 2016, published 2019).

Experiments:
[1] = target: T1, Nrh/IP3R1 complex (Flag-Nrh / HA-hBD IP3R1) (Homo sapiens, UniProt Q9HD36); assay: Co-immunoprecipitation of Flag-Nrh and HA-hBD IP3R1 in HeLa cells pre-incubated with dTAT peptides; format: cell-based; details: 10 μM peptide, pre-incubated 1 h at 37° C., no external agent
T1 construct: expressed in transfected cells; host or cells: HeLa
T1 sequence (Q9HD36 11-204): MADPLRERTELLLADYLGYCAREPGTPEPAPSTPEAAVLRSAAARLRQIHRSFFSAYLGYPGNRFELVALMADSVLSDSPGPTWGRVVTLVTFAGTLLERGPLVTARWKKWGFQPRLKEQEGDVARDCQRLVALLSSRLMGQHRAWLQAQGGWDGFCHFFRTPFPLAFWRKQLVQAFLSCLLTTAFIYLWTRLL
Method: (B) The interaction between Flag-Nrh and HA-hBD IP3R1 was assessed by co-immunoprecipitation in HeLa cells transfected with a plasmid coding for Flag-Nrh or HA-hBD IP3R1, pre-incubated with 10 μM control peptide (dTAT 1-23 C20A Y16F) or 10 μM peptide (dTAT 1-23 C20A). In this experiment, dTAT-Nrh 1-23 C20A but not dTAT 1-23 C20A Y16F disrupts the Nrh/IP3R1 complex.
The interaction between Flag-Nrh (Bcl-2 L10) and HA-hBD IP3R1 was assessed by co-immunoprecipitation in HeLa cells transfected with a plasmid coding for Flag-Nrh or HA-hBD IP3R1, pre-incubated for 1 h at 37° C. in Ca^2+-free Balanced Salt Solution (121 mM NaCl, 5.4 mM KCl, 0.8 mM MgCl2, 6 mM NaHCO3, 5.5 mM D-glucose, 25 mM HEPES, pH 7.3) with vehicle (peptide solvant [H2O-TFA 0.1%]), and: • 10 μM of control peptide (dTAT 1-23 Y16F C20A) or • 10 μM of wild-type peptide (dTAT 1-23 C20A).
Cells were washed twice and incubated for another 1 h at 37° C. before harvest.

[2] = tested on: MDA-MB-231 cancer cells; assay: MDA-MB-231 tumour growth in the mammary fat pad of SCID mice; format: in vivo; details: 10 mg/kg, peritumoral injection, once every three days, monotherapy, versus vehicle (PBS); P<0.01
Method: (A) MDA-MB-231 cells have been injected into the mammary fat pad of SCID mice. When the tumors reached a mean volume of about 90 mm^3, mice were treated with dTAT 1-23 C20A peptide at 10 mg/kg, peritumoral injection, once every three days, or vehicle alone (PBS) with the same injection periodicity.
SCID Mice have been used as tumor model for testing the effects of administration of the peptides according to the invention
MDA-MB-231 cancer cells have been injected into the mammary fat pad of SCID mice.

CKRKKRRQRRRGGSGGADPLRERTELLLADYLGYAARE [dTAT 1-23 C20A]
disruption of the Nrh/IP3R1 complex (co-immunoprecipitation) [1]: disrupt the Nrh/IP3R1 complex | effect on tumoral growth (tumor volume) [2]: significant effect
